Measurements reported in publication PMC12001967, “Different RNA recognition by ProQ and FinO depends on the sequence surrounding intrinsic terminator hairpins”.

Experiments:
[1] = target: T1, ProQNTD (FinO domain of ProQ) (Escherichia coli, UniProt P45577 1-130); assay: EMSA; 25 mM Tris-HCl pH 7.5, 150 mM NaCl, 5% glycerol, 1 mM MgCl2, 1 nM 32P-RNA, 30 min at room temperature; native 6% PAGE in 0.5x TBE at 4 C; conditions: protein: recombinant, tags: pET-15b construct, label: 32P
T1 sequence: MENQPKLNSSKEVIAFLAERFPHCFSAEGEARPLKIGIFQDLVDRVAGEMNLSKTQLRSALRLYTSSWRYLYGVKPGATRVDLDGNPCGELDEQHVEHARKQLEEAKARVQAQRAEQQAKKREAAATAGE

FinO [2] = target: T2, FinO (F-like plasmid (Escherichia coli), UniProt P29367 1-186); assay: as above; conditions: protein: recombinant, tags: His6-TEV site (ENLYFQ/S) N-terminal in the expression construct, label: 32P
T2 sequence: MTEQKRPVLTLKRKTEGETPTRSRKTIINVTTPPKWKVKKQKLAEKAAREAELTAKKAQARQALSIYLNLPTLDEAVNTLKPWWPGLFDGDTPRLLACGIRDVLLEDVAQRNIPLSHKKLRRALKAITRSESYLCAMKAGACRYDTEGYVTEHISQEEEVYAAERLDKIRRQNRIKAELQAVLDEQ

ProQ [3] = target: T3, ProQ (Escherichia coli, UniProt P45577 1-232); assay: as above; conditions: protein: recombinant, tags: pET-15b construct, label: 32P
T3 sequence: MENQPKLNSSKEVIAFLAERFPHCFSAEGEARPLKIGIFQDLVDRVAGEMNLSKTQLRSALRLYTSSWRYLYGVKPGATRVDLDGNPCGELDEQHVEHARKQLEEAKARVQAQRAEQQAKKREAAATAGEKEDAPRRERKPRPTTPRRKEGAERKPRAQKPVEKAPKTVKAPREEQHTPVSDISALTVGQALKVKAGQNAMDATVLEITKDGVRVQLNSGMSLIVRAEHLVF

ProQ [4] = target: T3, ProQ; assay: EMSA; max bound 67%; 150 mM NaCl, 25 mM Tris-HCl pH 7.5, 5% glycerol, 1 mM MgCl2, 1 nM 32P-RNA, 30 min at room temperature; native 6% PAGE in 0.5x TBE at 4 C; conditions: protein: recombinant; tags: pET-15b construct; label: 32P; terminator hairpin
FinO [5] = target: T2, FinO; assay: EMSA; max bound 55%; 150 mM NaCl, 25 mM Tris-HCl pH 7.5, 5% glycerol, 1 mM MgCl2, 1 nM 32P-RNA, 30 min at room temperature; native 6% PAGE in 0.5x TBE at 4 C; conditions: protein: recombinant; tags: His6-TEV site (ENLYFQ/S) N-terminal in the expression construct; label: 32P; terminator hairpin
FinO [6] = target: T2, FinO; assay: EMSA; max bound 57%; 150 mM NaCl, 25 mM Tris-HCl pH 7.5, 5% glycerol, 1 mM MgCl2, 1 nM 32P-RNA, 30 min at room temperature; native 6% PAGE in 0.5x TBE at 4 C; conditions: protein: recombinant; tags: His6-TEV site (ENLYFQ/S) N-terminal in the expression construct; label: 32P; terminator hairpin
ProQ [7] = target: T3, ProQ; assay: EMSA; max bound 85%; 150 mM NaCl, 25 mM Tris-HCl pH 7.5, 5% glycerol, 1 mM MgCl2, 1 nM 32P-RNA, 30 min at room temperature; native 6% PAGE in 0.5x TBE at 4 C; conditions: protein: recombinant; tags: pET-15b construct; label: 32P; terminator hairpin
[8] = terminator hairpin, 5' A4 paired with first four U of U8 tail
[9] = terminator hairpin, A-G then C-A mismatch below, GAU4 tail

B1: RepX-malM (structured_RNA)
RNA: GCAUUGAUUGCCUCCUUUGCAGGCAGUUGGUGGACUGGCGCUGGCGGGGUCACUACCCCCGCCCUGCGCCUUUUUUU
**Q.** With B1 as the binder, how does the Kd ([1]; terminator hairpin) read?
**A.** The Kd was 3.2 ± 1.6 nM.

**Q.** And the Kd (FinO [2]; terminator hairpin)?
**A.** The Kd was 150 ± 67 nM.

B2: malM-FinP (structured_RNA)
RNA: GCUUUAUCAGCAGUGUAAAAGGCAAGGGGUAAUUACGCCCCACAGUGCUGAUUUUGCAACAACAGGUGCGUCUCCUGGCGCACCGAUUUU
**Q.** Which results are given for B2?
**A.** Kd (FinO [2]; terminator hairpin): 86 ± 17 nM; Kd (ProQ [3]; terminator hairpin): 78 ± 22 nM

B3: malM-RepX (structured_RNA)
RNA: GCUUUAUCAGCAGUGUAAAAGGCAAGGGGUAAUUACGCCCCACAGUGCUGAUUUUGCAACAUUAGGUGCGUCUCCUGGCGCACCGCUCU
**Q.** What does the source list for B3?
**A.** Kd (ProQ [4]): 61 ± 29 nM; Kd (FinO [5]): 180 ± 93 nM; Kd (FinO [2]; terminator hairpin): 180 ± 93 nM; Kd (ProQ [3]; terminator hairpin): 61 ± 29 nM

B4: cspE81-3' (structured_RNA)
RNA: GGCCCUUCUGCUGCAAACGUAAUCGCUCUGUAAGAUACGUCAGCAAGAAUUCAAAACCCGCUUAAUCAGCGGGUUUUUUUU
**Q.** What does the source list for B4?
**A.** Kd [1, 8]: 2.4 ± 0.27 nM; Kd (ProQ [3]; [8]): 37 ± 7.1 nM

B5: RepX (structured_RNA)
RNA: GCAUUGAUUGCCUCCUUUGCAGGCAGUUGGUGGUUAGGCGCUGGCGGGGUCACUACCCCCGCCCUGCGCCGCUCU
**Q.** How did the Kd (FinO [2]; terminator hairpin, A-G mismatch below) turn out when B5 was run?
**A.** Its Kd is 61 ± 23 nM.

B6: malM-3' (structured_RNA)
RNA: GCUUUAUCAGCAGUGUAAAAGGCAAGGGGUAAUUACGCCCCACAGUGCUGAUUUUGCAACAACUGGUGCGUCUCCUGGCGCACCUUUUUUU
**Q.** B6 was tested. Which Kd ([1]; terminator hairpin, U7 tail) did it give?
**A.** Its Kd is 5.8 ± 0.7 nM.

**Q.** What about the Kd (ProQ [3]; terminator hairpin, U7 tail) of the same binder?
**A.** The Kd was 27 ± 12 nM.

B7: malM-3' U64A;U85G (structured_RNA)
RNA: GCUUUAUCAGCAGUGUAAAAGGCAAGGGGUAAUUACGCCCCACAGUGCUGAUUUUGCAACAACAGGUGCGUCUCCUGGCGCACCGUUUUUU
**Q.** B7 was tested. Which Kd [1] did it give?
**A.** The Kd was 1.9 ± 0.59 nM.

**Q.** And the Kd (FinO [2])?
**A.** The Kd was 150 ± 40 nM.

B8: malM-3' U64A;U85G;U86A (structured_RNA)
RNA: GCUUUAUCAGCAGUGUAAAAGGCAAGGGGUAAUUACGCCCCACAGUGCUGAUUUUGCAACAACAGGUGCGUCUCCUGGCGCACCGAUUUUU
**Q.** Which Kd (FinO [2]) does the source give for B8 here?
**A.** The Kd was 130 ± 18 nM.

**Q.** And the Kd (ProQ [3])?
**A.** Its Kd is 160 ± 30 nM.

B9: FinP-malM (structured_RNA)
RNA: GGAUACAUAGGAACCUCCUCACAAAGGAUUCUAUGGACUGUCGAUGCAGGGAGUUCACGUCUCCCUGCAUCGGCUUUUUUU
**Q.** Which results are given for B9?
**A.** Kd (FinO [6]): 280 ± 110 nM; Kd ([1]; terminator hairpin): 5.3 ± 1.5 nM; Kd (ProQ [3]; terminator hairpin): 25 ± 6.7 nM

B10: cspE81-FinP-stem (structured_RNA)
RNA: GGCCCUUCUGCUGCAAACGUAAUCGCUCUGUAAGAUACGUCAGCAAGAAUUCAACAGUCGCUUAAUCAGCGGCGAUUUU
**Q.** Which Kd (ProQ [7]) does the source give for B10 here?
**A.** Its Kd is 130 ± 34 nM.

**Q.** And the Kd (FinO [2]; terminator hairpin)?
**A.** Its Kd is 56 ± 16 nM.

**Q.** What about the Kd (ProQ [3]; terminator hairpin) of the same binder?
**A.** Its Kd is 130 ± 34 nM.

B11: cspE81-FinP (structured_RNA)
RNA: GGCCCUUCUGCUGCAAACGUAAUCGCUCUGUAAGAUACGUCAGCAAGAAUUCAACACCCGCUUAAUCAGCGGGGAUUUU
**Q.** For B11, which Kd ([1]; terminator hairpin) is on record?
**A.** Its Kd is 4.9 ± 0.32 nM.

**Q.** What about the Kd (FinO [2]; terminator hairpin) of the same binder?
**A.** The Kd was 88 ± 39 nM.

B12: FinP (structured_RNA)
RNA: GGAUACAUAGGAACCUCCUCACAAAGGAUUCUAUGGACAGUCGAUGCAGGGAGUUCACGUCUCCCUGCAUCGGCGAUUUU
**Q.** B12 was tested. Which Kd [1, 9] did it give?
**A.** Its Kd is 19 ± 6 nM.

**Q.** And the Kd (FinO [2]; [9])?
**A.** The Kd was 110 ± 16 nM.

**Q.** What about the Kd (ProQ [3]; [9]) of the same binder?
**A.** The Kd was 79 ± 18 nM.

B13: FinP A39U;G75U (structured_RNA)
RNA: GGAUACAUAGGAACCUCCUCACAAAGGAUUCUAUGGACUGUCGAUGCAGGGAGUUCACGUCUCCCUGCAUCGGCUAUUUU
**Q.** What does the source list for B13?
**A.** Kd [1]: 6.2 ± 3.1 nM; Kd (FinO [2]): 200 ± 73 nM

B14: FinP A39U;G75U;A76U (structured_RNA)
RNA: GGAUACAUAGGAACCUCCUCACAAAGGAUUCUAUGGACUGUCGAUGCAGGGAGUUCACGUCUCCCUGCAUCGGCUUUUUU
**Q.** Which Kd [1] does the source give for B14 here?
**A.** The Kd was 9.4 ± 4.5 nM.

**Q.** What about the Kd (FinO [2]) of the same binder?
**A.** The Kd was 170 ± 45 nM.

**Q.** What about the Kd (ProQ [3]) of the same binder?
**A.** Its Kd is 37 ± 5.4 nM.
